Target: the molecule itself
Test: SEC

B1: human NLRP10 (aa 4-655) (natural protein)
chain: AKARKPREALLWALSDLEENDFKKLKFYLRDMTLSEGQPPLARGELEGLIPVDLAELLISKYGEKEAVKVVLKGLKVMNLLELVDQLSHICLHDYREVYREHVRCLEEWQEAGVNGRYNQVLLVAKPSSESPESLACPFPEQELESVTVEALFDSGEKPSLAPSLVVLQGSAGTGKTTLARKMVLDWATGTLYPGRFDYVFYVSCKEVVLLLESKLEQLLFWCCGDNQAPVTEILRQPERLLFILDGFDELQRPFEEKLKKRGLSPKESLLHLLIRRHTLPTCSLLITTRPLALRNLEPLLKQARHVHILGFSEEERARYFSSYFTDEKQADRAFDIVQKNDILYKACQVPGICWVVCSWLQGQMERGKVVLETPRNSTDIFMAYVSTFLPPDDDGGCSELSRHRVLRSLCSLAAEGIQHQRFLFEEAELRKHNLDGPRLAAFLSSNDYQLGLAIKKFYSFRHISFQDFFHAMSYLVKEDQSRLGKESRREVQRLLEVKEQEGNDEMTLTMQFLLDISKKDSFSNLELKFCFRISPCLAQDLKHFKEQMESMKHNRTWDLEFSLYEAKIKNLVKGIQMNNVSFKIKHSNEKKSQSQNLFSVKSSLSHGPKEEQKCPSVHGQKEGKDNIAGTQKEASTGKGRGTEETPKNTYI
binding result: binds

B2: Walker A mutant human NLRP10 (aa 4-655 K179A) (natural protein)
chain: AKARKPREALLWALSDLEENDFKKLKFYLRDMTLSEGQPPLARGELEGLIPVDLAELLISKYGEKEAVKVVLKGLKVMNLLELVDQLSHICLHDYREVYREHVRCLEEWQEAGVNGRYNQVLLVAKPSSESPESLACPFPEQELESVTVEALFDSGEKPSLAPSLVVLQGSAGTGATTLARKMVLDWATGTLYPGRFDYVFYVSCKEVVLLLESKLEQLLFWCCGDNQAPVTEILRQPERLLFILDGFDELQRPFEEKLKKRGLSPKESLLHLLIRRHTLPTCSLLITTRPLALRNLEPLLKQARHVHILGFSEEERARYFSSYFTDEKQADRAFDIVQKNDILYKACQVPGICWVVCSWLQGQMERGKVVLETPRNSTDIFMAYVSTFLPPDDDGGCSELSRHRVLRSLCSLAAEGIQHQRFLFEEAELRKHNLDGPRLAAFLSSNDYQLGLAIKKFYSFRHISFQDFFHAMSYLVKEDQSRLGKESRREVQRLLEVKEQEGNDEMTLTMQFLLDISKKDSFSNLELKFCFRISPCLAQDLKHFKEQMESMKHNRTWDLEFSLYEAKIKNLVKGIQMNNVSFKIKHSNEKKSQSQNLFSVKSSLSHGPKEEQKCPSVHGQKEGKDNIAGTQKEASTGKGRGTEETPKNTYI
binding result: binds

Source: paper doi:10.1101/2025.11.27.690698 (bioRxiv, 2025)
